Experiments:
His6-Fur [1] = target: T1, His6-Fur (UniProt Q66DC2 1-148); experiment: EMSA; 5 mM MgCl2, 50 ng poly(dI-dC); […] (pH not stated); ITC: PBS, 25 C; settings: protein: recombinant; tags: His6; chain copies: 2; label: 5' biotin (BioT6SS-1pF); blunt
His6-Fur [2] = target: T1, His6-Fur; experiment: competition; […] (pH not stated); ITC: PBS, 25 C; settings: protein: recombinant; tags: His6; chain copies: 2; blunt

Row | Binder | binding result (His6-Fur [1]) | binding result (His6-Fur [2])
1 | BioT6SS1-p (dsDNA) DNA 1: TATCGCAATAAAAATGCCACTCATGTTTTAATATA DNA 2: TATATTAAAACATGAGTGGCATTTTTATTGCGATA | binds | 
2 | T6SS1-p (unlabeled) (dsDNA) DNA 1: TATCGCAATAAAAATGCCACTCATGTTTTAATATA DNA 2: TATATTAAAACATGAGTGGCATTTTTATTGCGATA |  | binds

Source: publication PMC10833071
